Reference: the nanobody polyreactivity screen of Harvey et al. (2022)

Experiment: yeast display, Sf9 membrane polyspecificity reagent, FACS + sequencing; frameworks hold sequencing errors
In short: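 Nanobodies came from a synthetic yeast display library in Saccharomyces cerevisiae BJ5465, induced with galactose for 36–48 hours and stained for 1 hour at 4 °C with 10% biotinylated, detergent-solubilized Sf9 membrane reagent. Cells were enriched on streptavidin microbeads and then FACS-sorted, with low and high (top ~1%) gates set on anti-HA fluorescence for expression and streptavidin fluorescence for reagent binding. Each polyreactivity label reflects the gate a clone came from. Genes were amplified by colony PCR, sequenced by MiSeq 2 × 250 and filtered by CDR length.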

Row | Sequence | polyreactivity (PSR sort gate)
1 | QVQLVESGGGLVQAGGSLRLSCAASGIIIRYYAMGWYRQAPGKERELVADITTGGTTYYADSVKGRFTISRDNAKNTVYLQMNCLKPEDTAVYYCAAYYFPTYSKTYIYPFDYWGQGTQVTVSS | low polyreactivity
2 | QDQLVESGGGLVQAGGSLRLSCAASGSTFYWYTMGWYRQAPGKESEMVATITSVGRTNYADSVKGRFTISRDNAKNTVYLQMNSLKPEDTAVYYCAASKARWARGGSKYYYWGQGTQVTVSS | high polyreactivity
3 | QVQLVESGGGLVQAGGSLRLSCAASGLTFIPNAMGWYRQAPGKERELVAAISGTGGSTYYADSVKGRFTISRDNAKNTVYLQMNSLKPEDTAVFYCAARAYLGYYSWGQGTQVTVSS | high polyreactivity
4 | QVQLVESGGGLVQAGGSLRLSCAASGFILPHYTMGWYRQAPGKERELVAAITSGVSTYYADSVKGRFTISRDNAKNTVYLQMNSLKPEDTAVYYCNALATYIGYKYDYWGQGTQVTVSS | low polyreactivity
5 | PVQLVESGGVLVQAGGSLRLSCAASGFTFWLYAMGWYRQAPGNEREFVAAISPSGGSTYADSVKGRFTLSRDNAKNTVYLPMNRLKPEDTAVYYCNDGYLLYYDYHLFYWGQGTQLTVSS | low polyreactivity
6 | QVQLVESGGGLVQAGGSLRLSCAASGRIFDVYAMGWYRQAPGKERELVAAITWSGGRTYYADSVKGRFTISRDNAKNTVYLQLNSLKPEDTAVYYCAAEKPYVRGYLWTYDYWGQGTQVTVSS | low polyreactivity
7 | HVQLVESGGGLVQAGGSLRLSCAASGINFSWYPMGWYRQAPGKERELVAAISSSGGTTFYADSVKGRFTISRDKAKNTVYLQMNSLKPEDTAVYYCAVVGPPYYTWRVWRPAYDYWGQVTQVTVSS | high polyreactivity
8 | QVQLVESGGGLVKAGGSLRLSCAASGLIFKLNAMGWYRQSPGKERELVAAIRASTGSTYYADSVKGRFTISRDNAKNTVYLQMNSLKPEDTAVYYCAVSLRWYFFLMDYWGQGTQVTVSS | high polyreactivity
9 | QVQLVESGGGLVQAGGSLRLSCAASGFTFIYYALGWYRQAPGKERELLATISYDGGSTYYSDSVKGRFTISRDNAKNTVYLQMNSLKPEDTAVYYCNADFADDKYYLFESELEYDYWGQGTQVTVSS | low polyreactivity
10 | QVQLVESGGGLVQAGGSLRLSCAASGFIFTNVMGWYRQAPGKERELVAAISGRGTSTYYADSVKGRFTISRDNAKNTVYLQMNSLKPEETAVYYCAAASYQSRYWNYYWGQGTQVTVSS | high polyreactivity
11 | QVQLVESGGGLVQAGGSLRLSCAASGAIFESNAMGWYRQAPGKEREFVAAIDQNDGSSNYADSVKGRFTISRDNAKNTVYLQMNSLKPEDSAVYYCAAEVPGYWYLDYEYWGHGTQVTVSS | low polyreactivity
12 | QVQLVESGGGLVQAGGSLRLSCAASGLTFYAYAMGWYRQAPGKERELVAHISWTGTTTYYADSVKGRFTISRDNAKNTVYLQMNSLKPEDTAVYYCAALIYRYAVAPPGYQYWLYYWGQGTLVTVSS | low polyreactivity
13 | QVQLVESGGGLVQAGGSLRLSCAASGSTFLHYAMGWYRQAPGKERELVAAISRRGGRTYYADSVKGRFTISRDNAKNTVYLQMNSLKPEDTAVYYCAVDGIRDGYWIFYYWGQGTQVTVSS | low polyreactivity
14 | QVQLVESGGGLVQAGGSLRLSCAASGSTFDTNAMGWYRQAPGKDRELVAAITSGGNTYADSVKGRFTISRDNAKNTVYLQMNSLKPEDTAVYYCAAEDVYTGWYDYWGQGTQVTVSS | low polyreactivity
15 | QVPLVESGGVLVQAGGSLRLSFAASGRIYENAMGWYRQAPVNERELVAVISWSGGSKSYADSVKRRLTISRDNAMNTVYFQMNRLKPEDTAVYYCNAYRLLSRRYYYLGQGTQVTVSS | low polyreactivity
16 | QVQLVESGGGLVQAGGSLRLSCAASGSIFVVYAMGWYRQAPGKERELVAGISDGDNTNYADSVKGRFTISRDNAKNTVYLQMNSLKPEDTAVYYCNADGTSRNLEGFDYWGQGTQVTVSS | low polyreactivity
17 | QVQHVESGGGIVQAGGSLRLSCAASGRIFDSNAMGWYRQAPGKERELVAAITTSGGSTFYADSVKGRFTISRDNAKNTVYLQMNSLKPEDTAVYYCAAGYSYYYHAIFPFDYWGQGTQVTVSS | high polyreactivity
18 | QVQLVESGGSLVQAGGSHRLSCAASRSIFPPYAMGWYRPAAGKERELVAAITLRGGSTYYADSVKGRFTISRDNAKNTVYLQMNSLKPEDTAVYYCAAYKSAREYYWGQGTQVTVSS | high polyreactivity
19 | QVQLVESGGGLVQAGGSLRLSCAASGLIFDPNTMGWYRQAPGKERELVAAISSGGDTNYADSVKGRFTISRDNAKNTVYLQMNSLKPEDTAVYYCAAERYYFPRSYRYGYWGQGTQVTVSS | low polyreactivity
20 | QVQLVESGGGLVQAGGSLRLSCAASGSIFYYYTMGWDRQAPGKERELVADITYRGGSTYYADSVKGRFTISRDNAKNTVYLLMNSLKPEDTAVNFCAAASLVRGGHFDYWGQGTQVTVSS | high polyreactivity
21 | HVQLQESGGGLVQEGGSLRLSCAASGSIFQATYMGWYRQAPGKELEFVASITYGSITNYADSVKGSFTIGRDNAKDTLYLQMNSLKPEDTAVYYCAVDRHYIPDFHYWGQGTQVTVSS | low polyreactivity
22 | QVQLVESGGGLVQAGGSLRLSCAASGRTFYVNTMGWYRQAPGKERELVAAITSRGGRTHYADSVKGRFTISRDNAKNNVYLQMNSLKPEDTAVYYCAAKITAYWRYISDYGYWGQGTQVTVSS | high polyreactivity

Row | Sequence | polyreactivity (PSR sort gate)
23 | QVQLVESGGGLVQAGGSLRLSCAAYSYVMGWYRQAPGKERELVAAISQSGGSTYYADSVKGRFTISRDNAKNTVYLQMNSLKPEDTADYYCAARREPYQYNQYYSWGQGTQVTVSS | high polyreactivity
24 | QVQLVESRGFLVQAGGSLRLSCAAYGSSFFTYAMGWYRQAPRKERELVAGINWSGGSTYADSVKGRFTMSRDNAKNTVYLQMNSLKPEDTAVYFCAAKYYSERSRYHYWGQGTQVTVSS | low polyreactivity
25 | QVQLVESGGGLVQAGGSLRLSCAASGRIFPLYAMGWYRQAPGKERELVADISVTGTSTYYADSVKGRFTISRDNAKNTVYLQMNSLKPEDTAVYYCAADLWAYGPLWRWSRADYDYWGQGTQVTVSS | low polyreactivity
26 | QVQLVESGGGLVQAGCSLRLSCAASGSTFRSYAMGWYRQAPGKERELVASISGDGDSTYYADSVKGRFTISRDNAKNTVYLQMNSLKPEDTAVYYCNKGLHNGEVDYDYWGQGTQVTVSS | low polyreactivity
27 | QVQLVESGGGLVQAGGSLRLSCAASGRTLGGNAMGWYRQAPGQERELVAAITNSASTYADSVKGRFTISRDNAKNTVYIQMNSLKPEDTAVYYCTAPDPSDQNGDYWGQGTQVTVSS | low polyreactivity
28 | QVQLVESGGGLVQAGGSLRISCAASGRTFGIYAMGWYIKGPGKERELVADITIGGSTFYADSVKGRFTISRDNAKNTVYLPMNSLKPEDTAVYYCYDDVVVQYYFTYYRFFTYDYWGQGTQVTVSS | low polyreactivity
29 | QFQLVESGGGLVQAGGSLRLSCAASGSIFKYYVMGWYRQAPGNERELVATITSDGGTNYADSVKGRFTISRDNAKNTVYLQMNSLKPEDTAVYYCNAASRRGSRKQAKYDYWGQGTQVTVSS | low polyreactivity
30 | QVQLVESGGGLVQAGGSLRLTCAASGFTFVINDMGWYRQAPGKERELVADITSGGDTYYADSVKGRFTISRDNAKNTVNFQMYSLKPEDTAVYYCAADIYPDWIYLLYGYWGQGTQVTVSS | low polyreactivity
31 | QVQLVESGGGLVQAGGSLRLSCAASGRTFGYNVMGWYRQAPGKERELVARITSGGNTKYADSVKGRFTISRDNAKNTVYLQMNSLKPEDTAVYYCAKRPLGVRGIYFQYDYWGQGTQVTVSS | high polyreactivity
32 | QVQLVESGGGLVQAGGSLRLSCAASGRTFPFNAMGWYRQAPGKERELVAGISSGGRTNYADSVKGRFTISRDNAKNTVYLQMNSMQPEDTAVYYCAARYQPSRAARWTLDYWGQGTQVTVSS | high polyreactivity
33 | QVQLVESGGGLVQAGGSLRLSCAASGSTFCDYAMGWYRQAPGKERELVAAISSGGSTNYADSVKGRFTISRDNAKNTVYLQMNSLKPEDTAVYYCAVGYGGYYYWGQGTQVTVSS | high polyreactivity
34 | QVQLVESGGGLVQAGGSLRLICAASGIILGHKAMGWYRQAPGKERELVATITTRGGSTYYADSVKGRFTISRDNAKNTVYLQMNSLKPEDTAVFYCAARPYKSLHYWYDYWGQGTQVTVSS | low polyreactivity
35 | QVQLVESGGGLVQAGGSLRLSCAASGSTFYKYGMGWYRPAPGKERELVAAISGSGDSTYYADSVKGRFTISRDNAKNTVYLQMNSLKPEDTAVYYCNAGPWWYLHEYDYWGQGTQVTVSS | low polyreactivity
36 | QVQLVESGGWLVQAGGSLRLRCAASGRIFSRYAMGWYRQAPGKEWELVAAISWSGGSTYYADSVKGRFTISRDNAKNTVYLQMNSLKPEDTAVYYCAAKRQYTEYNYWGQGSQVTVSS | high polyreactivity
37 | QVQIVESGGGLVQAGGSLRLSCAASGRIFNIYAMGWYRQAPGKERELVADIRWNGGSTYYADSVKGRFTISRDNAKNTVYLQMNSLKPEDTAVYYCAAARRRRFYDYYNAWYDVDYWGQGTQVTVSS | low polyreactivity
38 | QVQLVESGGGLVQAGGSLRLSCAASGRTFKRYAMGWYRQAPGKERELVAAITFSGGSTYYADSVKGRFTISRDNAKNTVYLQMNSLKPADTAVYYCAAVGEHYPWDYYWGQGTQVTVSS | high polyreactivity
39 | QVQLVESGGGLVQAGGSLRLSCAASGRTFLGYAMGWYRQAPGKERELVAAITSGTRTYADSVKGRFTISRDNAKYTVYLQMNSLKPEDTAVYYCAALRWQYRLYSYSFRSGRFDYWGQGTQVTVSS | low polyreactivity
40 | QVQLVDTGGGLVQAGGILRIRCAASGRIFHGNSMVCYRQAPGKERELVAAITWGGTRTYYSDSVKGRFTISRDNAKNTVYLQMNSLKPEDTAVYYCATDYGYTDRVTSGFDYWGQGNQVTVSS | low polyreactivity
41 | QVQLVESGGGLVQAGGSLRLSCAASGGIFQGYAMGWYRQAPGKERELVAAISRSGGRTYYADSVKGRFTISRDNAKKTVYLQMNSLKPEDTSVYYCAADIRLSKYDYRGQGTQVTVSS | high polyreactivity
42 | QVQLVESGGGLVQAGGSLRLSCAASGYTFKSYVMGWYRQAPGKERELVAAITSIGGSTYYADSVKGRFTISRDNAKNTVYLQMNRLKPEDTAVYYCAARSFRFYPRMHDWGQGTQVTVSS | high polyreactivity
43 | QVQLVESGGGLVQAGGSLRLSCAASGRTFYGNAMGWYRQAPGKERELVAAINYSGGRTFYADSVKGRFTISRDNAKNTVYLQMNSLKPEDTAVYYCAAQDTYYGLFSYWIPWSGYWGQGTQVTVSS | high polyreactivity
